Measured values: PMC11905138

Columns and labels:
Conditions in all cases: reference: Flag-PKM2 wild type; sites Y105
IQGAP1 [1] = molecular target: IQGAP1 (UniProt P46940); test: anti-Flag IP, LC-MS/MS
IQGAP1 [2] = molecular target: IQGAP1 (UniProt P46940); test: anti-Flag co-IP, IQGAP1 blot
TSG101 = TSG101 (UniProt Q99816); test: anti-Flag co-IP, TSG101 blot

Measured: binding against the reference

PKM2 (pyruvate kinase M2) (from UniProt P14618) Flag-PKM2 Y105F
lost: all assays above
